Measured values reported in patent publication US20140087995A1 (published 2014).
Where two headings read alike, the source gives them in different places. Numbered stars: 1 amine (or outer) side, 2 acyl side, 3 side chain; on linkers, the order of the positions; unused ones are H or OH. Bridge positions count the residues as written; N and C are the ends. Side chains are listed from the residue outwards. Ends that are not written are not given here. * marks the point of attachment. C20 diacid = O=C(O)CCCCCCCCCCCCCCCCCCC(=O)*; γGlu = O=C(O)[C@H](CCC(=O)[*:2])N[*:1]; AEEA = NCCOCCOCC(=O)O

T1: human calcitonin receptor (human, UniProt P30988 25-474)
T1 construct: whole, on cells; Membranes of a BHK tk'ts 13 cell line stably transfected with the human calcitonin receptor; also called hCTR; hCT
T1 sequence (looked up): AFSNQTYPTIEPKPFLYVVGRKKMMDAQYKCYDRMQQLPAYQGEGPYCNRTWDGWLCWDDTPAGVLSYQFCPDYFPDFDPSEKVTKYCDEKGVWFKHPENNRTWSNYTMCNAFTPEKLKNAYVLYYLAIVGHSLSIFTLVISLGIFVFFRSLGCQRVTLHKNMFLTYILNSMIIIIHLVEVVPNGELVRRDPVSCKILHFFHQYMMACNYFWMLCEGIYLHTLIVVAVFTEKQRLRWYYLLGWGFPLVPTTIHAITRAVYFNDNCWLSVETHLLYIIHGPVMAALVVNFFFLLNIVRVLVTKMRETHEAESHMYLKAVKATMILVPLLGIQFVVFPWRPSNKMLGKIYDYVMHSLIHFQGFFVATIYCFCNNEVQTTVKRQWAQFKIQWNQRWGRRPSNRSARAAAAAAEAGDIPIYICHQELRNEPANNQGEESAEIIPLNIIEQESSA

T2: rat calcitonin receptor (rat, UniProt P32214 25-516)
T2 construct: whole, on cells; Membranes of BHK tk'ts 13 cells transiently transfected with the rat calcitonin receptor; also called rCTR; rat calcitonin (a) receptor
T2 sequence (looked up): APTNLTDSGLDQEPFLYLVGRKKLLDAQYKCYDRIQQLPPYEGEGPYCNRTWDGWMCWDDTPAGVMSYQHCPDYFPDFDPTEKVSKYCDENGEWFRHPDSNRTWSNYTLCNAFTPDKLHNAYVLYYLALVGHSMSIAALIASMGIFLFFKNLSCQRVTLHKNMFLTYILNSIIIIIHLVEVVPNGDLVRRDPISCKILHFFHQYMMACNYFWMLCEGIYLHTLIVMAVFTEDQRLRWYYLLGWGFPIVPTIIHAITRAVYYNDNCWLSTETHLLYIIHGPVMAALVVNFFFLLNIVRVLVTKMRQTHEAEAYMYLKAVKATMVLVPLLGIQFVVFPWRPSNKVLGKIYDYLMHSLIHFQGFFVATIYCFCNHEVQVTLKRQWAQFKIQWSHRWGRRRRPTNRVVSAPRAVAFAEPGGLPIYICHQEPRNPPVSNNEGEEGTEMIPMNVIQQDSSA

T3: rat amylin receptor (rat calcitonin receptor + rat RAMP 3) (rat, UniProt P32214 25-516; Q9JJ73 23-147)
T3 construct: whole, on cells; Membranes of BHK tk'ts 13 cells transiently transfected with the rat calcitonin receptor and rat RAMP 3; also called rAmylin-R; rat amylin 3(a) receptor
T3 sequence (looked up) 1: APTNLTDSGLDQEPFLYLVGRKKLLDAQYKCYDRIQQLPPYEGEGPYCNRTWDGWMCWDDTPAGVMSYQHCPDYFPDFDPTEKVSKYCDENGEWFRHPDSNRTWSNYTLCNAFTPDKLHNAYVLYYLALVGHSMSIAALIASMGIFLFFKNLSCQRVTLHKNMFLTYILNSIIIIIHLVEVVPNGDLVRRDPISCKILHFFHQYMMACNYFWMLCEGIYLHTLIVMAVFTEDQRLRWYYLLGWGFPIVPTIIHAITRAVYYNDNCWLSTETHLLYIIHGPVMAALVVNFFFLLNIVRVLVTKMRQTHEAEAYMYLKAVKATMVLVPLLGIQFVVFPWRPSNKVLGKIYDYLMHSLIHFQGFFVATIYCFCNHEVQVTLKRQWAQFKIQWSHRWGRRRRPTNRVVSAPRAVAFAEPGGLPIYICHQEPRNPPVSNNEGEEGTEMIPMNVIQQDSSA
T3 sequence (looked up) 2: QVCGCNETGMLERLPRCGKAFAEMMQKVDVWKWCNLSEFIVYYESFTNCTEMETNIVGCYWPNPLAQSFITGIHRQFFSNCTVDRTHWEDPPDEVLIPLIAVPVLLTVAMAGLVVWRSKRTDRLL

T4: rat calcitonin receptor (rat, UniProt P32214 25-516)
T4 construct: whole, on cells; Cell membranes of transiently transfected BHK tk'ts 13 cells (Assay VIII); also called rCTR; rCT
T4 sequence (looked up): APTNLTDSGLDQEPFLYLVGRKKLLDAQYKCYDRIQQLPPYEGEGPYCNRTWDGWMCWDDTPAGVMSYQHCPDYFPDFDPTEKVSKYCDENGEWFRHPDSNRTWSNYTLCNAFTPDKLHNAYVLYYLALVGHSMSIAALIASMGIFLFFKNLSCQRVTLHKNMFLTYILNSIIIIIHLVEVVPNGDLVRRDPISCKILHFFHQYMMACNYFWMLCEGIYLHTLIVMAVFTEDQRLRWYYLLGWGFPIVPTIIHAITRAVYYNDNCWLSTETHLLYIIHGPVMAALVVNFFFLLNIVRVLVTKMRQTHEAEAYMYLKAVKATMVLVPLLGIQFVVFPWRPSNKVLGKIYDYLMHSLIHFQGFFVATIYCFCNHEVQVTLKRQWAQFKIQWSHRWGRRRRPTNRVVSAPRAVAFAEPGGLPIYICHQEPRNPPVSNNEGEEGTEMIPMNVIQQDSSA

T5: rat amylin receptor (rat calcitonin receptor + rat RAMP 3) (rat, UniProt P32214 25-516; Q9JJ73 23-147)
T5 construct: whole, on cells; Cell membranes of transiently transfected BHK tk'ts 13 cells (Assay VI); also called rAmylin-R; rat amylin 3(a) receptor
T5 sequence (looked up) 1: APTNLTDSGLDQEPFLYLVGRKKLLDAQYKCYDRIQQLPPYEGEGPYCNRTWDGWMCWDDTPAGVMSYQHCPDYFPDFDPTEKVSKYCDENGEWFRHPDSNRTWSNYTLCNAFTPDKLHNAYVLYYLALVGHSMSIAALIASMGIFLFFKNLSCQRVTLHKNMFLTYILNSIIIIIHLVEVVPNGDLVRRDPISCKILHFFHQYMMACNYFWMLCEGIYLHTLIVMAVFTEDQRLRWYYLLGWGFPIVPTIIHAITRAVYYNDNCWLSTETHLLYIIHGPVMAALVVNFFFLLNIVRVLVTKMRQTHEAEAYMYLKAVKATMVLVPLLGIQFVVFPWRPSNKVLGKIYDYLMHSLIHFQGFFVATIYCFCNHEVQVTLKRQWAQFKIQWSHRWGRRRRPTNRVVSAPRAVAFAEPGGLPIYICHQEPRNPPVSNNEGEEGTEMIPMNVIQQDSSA
T5 sequence (looked up) 2: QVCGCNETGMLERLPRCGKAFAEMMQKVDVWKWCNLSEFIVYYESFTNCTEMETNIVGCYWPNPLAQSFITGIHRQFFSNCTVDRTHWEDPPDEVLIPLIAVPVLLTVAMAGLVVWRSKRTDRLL


Key:
[1] = target: T1, human calcitonin receptor; test: IC50 at hCTR divided by IC50 at hAmylin-R (reference)
Outline: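 IC₅₀ values were derived by one-site competition analysis of SPA counts. Cell membranes (35 ng/μL) with SPA beads were incubated with test compounds for 120 min at 25° C in Hepes buffer, pH 7.4, containing CaCl2, MgCl₂, OA and Tween20.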

rat calcitonin receptor [2] = target: T2, rat calcitonin receptor; test: IC50 at rCTR divided by IC50 at rAmylin-R (reference)
rat calcitonin receptor [3] = target: T2, rat calcitonin receptor; test: SPA competition vs 125I-calcitonin, membranes with rat CTR (Assay VIII)
[4] = target: T3, rat amylin receptor (rat calcitonin …); test: SPA competition vs 125I-rat amylin, membranes with rat CTR + rat RAMP3 (Assay VI)
rat calcitonin receptor [5] = target: T4, rat calcitonin receptor; test: ratio IC50 rat calcitonin receptor / IC50 rat amylin receptor
rat calcitonin receptor [6] = target: T4, rat calcitonin receptor; test: SPA competition vs 125I-calcitonin, membranes with rat CTR (Assay VIII)
[7] = target: T5, rat amylin receptor (rat calcitonin …); test: SPA competition vs 125I-rat amylin, membranes with rat CTR + rat RAMP3 (Assay VI)

Ratio hCT/hAmylin binding [1] | Ratio rCT/rAmylin binding (rat calcitonin receptor [2]) | IC50 (rat calcitonin receptor [3]) [nM] | IC50 [4] [nM] | Ratio rCT/rAmylin binding (rat calcitonin receptor [5]) | IC50 (rat calcitonin receptor [6]) [nM] | IC50 [7] [nM] | Binder
26.8 | 67.1 | 41.8 | 0.623 |  |  |  | K([AEEA-γGlu-C20 diacid])RCNTATCATQRLANFLRHSSPNFGAIPSSTNVGSHTY-NH2 (disulfide 3-8; N-terminus assumed; SMILES CC[C@H](C)[C@H](NC(=O)[C@H](C)NC(=O)CNC(=O)[C@H](Cc1ccccc1)NC(=O)[C@H](CC(N)=O)NC(=O)[C@@H]1CCCN1C(=O)[C@H](CO)NC(=O)[C@H](CO)NC(=O)[C@H](Cc1c[nH]cn1)NC(=O)[C@H](CCCNC(=N)N)NC(=O)[C@H](CC(C)C)NC(=O)[C@H](Cc1ccccc1)NC(=O)[C@H](CC(N)=O)NC(=O)[C@H](C)NC(=O)[C@H](CC(C)C)NC(=O)[C@H](CCCNC(=N)N)NC(=O)[C@H](CCC(N)=O)NC(=O)[C@@H](NC(=O)[C@H](C)NC(=O)[C@@H]1CSSC[C@H](NC(=O)[C@H](CCCNC(=N)N)NC(=O)[C@@H](N)CCCCNC(=O)COCCOCCNC(=O)CC[C@H](NC(=O)CCCCCCCCCCCCCCCCCCC(=O)O)C(=O)O)C(=O)N[C@@H](CC(N)=O)C(=O)N[C@@H]([C@@H](C)O)C(=O)N[C@@H](C)C(=O)N[C@@H]([C@@H](C)O)C(=O)N1)[C@@H](C)O)C(=O)N1CCC[C@H]1C(=O)N[C@@H](CO)C(=O)N[C@@H](CO)C(=O)N[C@H](C(=O)N[C@@H](CC(N)=O)C(=O)N[C@H](C(=O)NCC(=O)N[C@@H](CO)C(=O)N[C@@H](Cc1c[nH]cn1)C(=O)N[C@H](C(=O)N[C@@H](Cc1ccc(O)cc1)C(N)=O)[C@@H](C)O)C(C)C)[C@@H](C)O, modifications are with respect to human amylin; also called compound 45)
 |  |  |  | 130 | 10.9 | 0.084 | K([AEEA-γGlu-C20 diacid])CNTATCATQRLANFLRHSSPNFGAIPPSTPVGSNTY-NH2 (disulfide 2-7, Acylated analogue of human amylin; also called compound 53)
 |  |  |  | 77.2 | 6.25 | 0.081 | K([AEEA-γGlu-C20 diacid])CNTATCATQRLANFLRHSSPNFGAIPPSTNVGPNTY-NH2 (disulfide 2-7; N-terminus assumed; SMILES CC[C@H](C)[C@H](NC(=O)[C@H](C)NC(=O)CNC(=O)[C@H](Cc1ccccc1)NC(=O)[C@H](CC(N)=O)NC(=O)[C@@H]1CCCN1C(=O)[C@H](CO)NC(=O)[C@H](CO)NC(=O)[C@H](Cc1c[nH]cn1)NC(=O)[C@H](CCCNC(=N)N)NC(=O)[C@H](CC(C)C)NC(=O)[C@H](Cc1ccccc1)NC(=O)[C@H](CC(N)=O)NC(=O)[C@H](C)NC(=O)[C@H](CC(C)C)NC(=O)[C@H](CCCNC(=N)N)NC(=O)[C@H](CCC(N)=O)NC(=O)[C@@H](NC(=O)[C@H](C)NC(=O)[C@@H]1CSSC[C@H](NC(=O)[C@@H](N)CCCCNC(=O)COCCOCCNC(=O)CC[C@H](NC(=O)CCCCCCCCCCCCCCCCCCC(=O)O)C(=O)O)C(=O)N[C@@H](CC(N)=O)C(=O)N[C@@H]([C@@H](C)O)C(=O)N[C@@H](C)C(=O)N[C@@H]([C@@H](C)O)C(=O)N1)[C@@H](C)O)C(=O)N1CCC[C@H]1C(=O)N1CCC[C@H]1C(=O)N[C@@H](CO)C(=O)N[C@H](C(=O)N[C@@H](CC(N)=O)C(=O)N[C@H](C(=O)NCC(=O)N1CCC[C@H]1C(=O)N[C@@H](CC(N)=O)C(=O)N[C@H](C(=O)N[C@@H](Cc1ccc(O)cc1)C(N)=O)[C@@H](C)O)C(C)C)[C@@H](C)O, Acylated analogue of human amylin; also called compound 55)
